Biological target: the molecule itself
Experiment: cross-linking; 35 µM protein in 50 mM phosphate pH 7.4, 150 mM NaCl, preincubated at 37°C for 30 min; BS2G d0/d4 at 20-fold molar excess (50- and 100-fold also tested), 1 h on ice, quenched with Tris; read by 4-20% SDS-PAGE with Coomassie stain

B1: Human recombinant αA-G98R crystallin (natural protein, UniProt P02489 1-173, looked up)
chain: MDVTIQHPWFKRTLGPFYPSRLFDQFFGEGLFEYDLLPFLSSTISPYYRQSLFRTVLDSGISEVRSDRDKFVIFLDVKHFSPEDLTVKVQDDFVEIHRKHNERQDDHGYISREFHRRYRLPSNVDQSALSCSLSADGMLTFCGPKIQTGLDATHAERAIPVSREEKPTSAPSS
binding result: binds
